The text below walks through data of IntAct's records for PubMed 19494831.

The chains are these.
B1: Polycomb protein Sfmbt (Drosophila melanogaster (Fruit fly)), Q9VK33 (parent)
chain: MNPSELRMMWMSSQYNSERITLEDAATLLGHPTVGLSVMEDLSAHQPTLDMNPMMSLMGGDFTGQAAATAAALGVQPGTLIATNSNNLYGFAHMGGLQQQLLQQSAAAAVFQNYAEAMDNDVENGMVGMAMEAVVDDDDQVYGQRDNNFDDNGSELEPKQEIINIDDFVMMNEDNNSYDGTDFMTSSDKDISQSSSSCMAQMPGSLGVPGVEHDLLVPLPDGLLHHKLLGTTLVPAMGTLNGNAFGNIMVSTENTSSKQMQRTYSTAKGANSTATTATCSASTSSALRSQRKTRKIEPVNRPGLVLKTPIAYRGNIDPSVIPIQKDGMAVCKRCGAIGVKHTFYTKSRRFCSMACARGELYSLVLNTKMEGDQATTSSPDPGAGSESADLPGDQQQSQSDIELDLHAAHIKNANYRFRITDQSKITQLNSFGEPMSMGGDAAANNVQMAADETIAALNGGAVGDATAPGSTEEGASTPNSYLSAAPTPKALRLFKDIYPQDDLPQIPKYERLPVPCPQMEKIISIRRRMYDPTHSYDWLPRLSKENFNAAPVTCFPHAPGCEVWDNLGVGMKVEVENTDCDSIEVIQPGQTPTSFWVATILEIKGYKALMSYEGFDTDSHDFWVNLCNAEVHSVGWCATRGKPLIPPRTIEHKYKDWKDFLVGRLSGARTLPSNFYNKINDSLQSRFRLGLNLECVDKDRISQVRLATVTKIVGKRLFLRYFDSDDGFWCHEDSPIIHPVGWATTVGHNLAAPQDYLERMLAGREAMIEVHEDDATIELFKMNFTFDEYYSDGKTNSFVEGMKLEAVDPLNLSSICPATVMAVLKFGYMMIRIDSYQPDASGSDWFCYHEKSPCIFPAGFCSVNNISVTPPNGYDSRTFTWEGYLRDTGAVAAGQHLFHRIIPDHGFEVGMSLECADLMDPRLVCVATVARVVGRLLKVHFDGWTDEYDQWLDCESADIYPVGWCVLVNHKLEGPPRVAHQQAPKPAPKPKIQRKRKPKKGAAGGKTPTDNNTQSVKSRTIALKTTPHLPKLSIKLELKPEHHNAAFYENNQPEEEGDEEDPDADGDGDGSTSHISEQSTTQSSSDLIAGSGSGSGSASLVTLATGSNKTNSSATNNKYIPRLADIDSSEPHLELVPDTWNVYDVSQFLRVNDCTAHCDTFSRNKIDGKRLLQLTKDDIMPLLGMKVGPALKISDLIAQLKCKVNPGRARSHKTNKSPFL

The first experiment covers variants of B1. The note with it: with h4_human H4C16, P62805.
On to Y948F, for which the “effect of a mutation on the interaction” value is reported as “decreasing interaction”.

With E947A, the “effect of a mutation on the interaction” value was “decreasing interaction”.

In the next experiment the parent is B1. Particulars: with h4_human H4C16, P62805. The source holds these as a separate data set.
For the variant Y948F, the “effect of a mutation on the interaction” value is “disrupting interaction”.

For E947A, the “effect of a mutation on the interaction” value was “disrupting interaction”.

The variants in the next experiment derive from B1. Particulars: with h4_human H4C16, P62805. The source holds these as a separate data set.
As to D697A, the “effect of a mutation on the interaction” value was “decreasing interaction”.

Variants of B1 are the subject of the next experiment. The note with it: with h33_human H3-3A.
Take D697A: the “effect of a mutation on the interaction” value is reported as “increasing interaction”.

The next experiment covers variants of B1. Particulars: with h33_human H3-3A. The source holds these as a separate data set.
With D808A, the “effect of a mutation on the interaction” value is recorded as “decreasing interaction”.

In the next experiment the parent is B1. The note with it: with h4_human H4C16, P62805. The source holds these as a separate data set.
With D808A, the “effect of a mutation on the interaction” value was “decreasing interaction”.

The next experiment covers variants of B1. Particulars: with h4_human H4C16, P62805. This is another data set of the same source.
Consider D917A, for which the “effect of a mutation on the interaction” value is given as “disrupting interaction”.

A further experiment covers variants of B1. The note with it: with h33_human H3-3A. The source holds these as a separate data set.
Consider D917A, for which the “effect of a mutation on the interaction” value was “disrupting interaction”.
